Measured values: publication PMC11443517

What was measured:
[1] = biological target: eDEN1-FRET-D10N construct lacking the C163A mutation; test: FRET or BRET; intramolecular FRET of 50 nM sensor (ratio of emission at 475 nm to 525 nm, excitation 440 nm) titrated with free or precursor Nedd8, binding competes with the reporter interaction; PBS pH 7.4, 0.05% Brij-35, 0.2 mg/mL ovalbumin, 1 mM DTT; single-site fit
[2] = biological target: eDEN1-FRET-D10N with the Wp2 domain replaced by Wp1; test: as above
eDEN1-FRET-D10N = test: as above
eDEN1-FRET = test: as above
eDEN1-nanoBiT = test: split reporter (BiFC, NanoBiT); intramolecular split nanoluciferase of purified eDEN1-nanoBiT, luminescence at 450 nm falls on binding; titration with the ligand; PBS pH 7.4, 0.2 mg/mL ovalbumin, 1 mM DTT, no Brij-35, 70 uM furimazine, 25 C, 96-well plate; single-site fit

| Kd [1] | Kd [2] | Kd (eDEN1-FRET-D10N) | Kd (eDEN1-FRET) | Kd (eDEN1-nanoBiT) | fold selectivity for free Nedd8 compared to precursor Nedd8 (eDEN1-FRET-D10N) | Substance |
| --- | --- | --- | --- | --- | --- | --- |
| 50.5 µM | 6.03 µM | 0.324 µM | 7.61 µM | 3.2 µM |  | free Nedd8 (from UniProt Q15843 1-76) (natural protein) |
|  |  |  |  | 270 µM | 444 fold | precursor Nedd8 (from UniProt Q15843 1-81) (natural protein) |
